In article PMC7786285 (Frontiers in Immunology, 2020):

Molecular target: T1, EGFR-ECD-Fc chimera (Homo sapiens, UniProt P00533)
T1 construct: extracellular domain of the epidermal growth factor receptor, as Fc chimera; No catalogue number printed; detected through its Fc with a goat anti-human IgG Fc PE antibody; also called EGFR-Fc chimera; EGFR-Fc; source: bought: R&D
Assay: flow cytometry on cells; yeast cells displaying chimeric Fabs stained with EGFR-ECD-Fc chimera (100, 10 and 1 nM; sorting 250 nM down to 1 nM), detected with goat anti-human IgG Fc PE
Conditions: one partner purified

Row | binding result | Binder
1 | binds | FEB4 VH paired with the VL of H1, Fab displayed on yeast (Fab, V domains shown) VH: AVTLDESGGGLQTPGGALSLVCKASGFTFSSHGMLWVRQAPGKGLEFVAGISTDGSSTSYGAPVKGRATISRDNGQSTVRLQLNNLRAEDTGTYYCAKDAYRCRNCAEDIDAWGHGTEVIVSS VL: ALTQPSSVSANPGETVKITCSGGYSYYGWIQQKSPGSAPVTLIYNNDNRPSGIPSRFSGSTSGSTSTLTITGVQAEDEAVYYCGSYDGSAGIFGAGTTLTVL
2 | binds | FEB4 VH paired with the VL of H3, Fab displayed on yeast (Fab, V domains shown) VH: AVTLDESGGGLQTPGGALSLVCKASGFTFSSHGMLWVRQAPGKGLEFVAGISTDGSSTSYGAPVKGRATISRDNGQSTVRLQLNNLRAEDTGTYYCAKDAYRCRNCAEDIDAWGHGTEVIVSS VL: ALTQPSSVSANPGETVEITCSGGGSNSYYGWYQQKAPGSAPVTVIYDNTNRPSNIPSRFSGSLSDSTNTLTITGVQADDEAVYFCGNEDNTDSYVGIFGAGTTLTVL
